Laboratory results published in patent publication US20160274109A1.

Target: Rap1B (Rap1B portion of the EPAC2-GFP-RAP1B sensor) (Homo sapiens (Human)) (UniProt P61224)
Test: cell-based or functional assay

Rap1B (Rap1B portion of the EPAC2-GFP-RAP1B sensor) (Homo sapiens (Human)), sequence (P61224 other isoform, or with tags, fused parts or gaps limits assumed): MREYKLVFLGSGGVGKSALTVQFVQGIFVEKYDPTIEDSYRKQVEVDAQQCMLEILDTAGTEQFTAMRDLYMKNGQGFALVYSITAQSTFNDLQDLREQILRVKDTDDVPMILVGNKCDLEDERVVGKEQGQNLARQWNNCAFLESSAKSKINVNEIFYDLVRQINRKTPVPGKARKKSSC

Row | Relative Change in Fluorescence in Response to Isoproternol (EPAC2gfpRAP1B sensor) [%] | change in fluorescence of the tethered Epac2-cpEGFP-Rap1B sensor in response to drug (isoproterenol), HEK 293 cells [%] | Substance
1 | 26 |  | Epac2 (Epac2 portion of the EPAC2-GFP-RAP1B sensor) (from UniProt Q8WZA2 1-1011)
2 |  | 25 | Epac2 (Epac2 portion of the EPAC2-GFP-RAP1B sensor) (from UniProt Q8WZA2 1-1011) (enzyme)
